In patent US6602687B1, “DNA encoding human ciliary neurotrophic factor and method for producing the protein encoded thereby” (Regeneron Pharmaceuticals, Inc., priority 1989, dated 2003):

Experiments:
[1] = system: E8 dorsal root ganglion neurons; assay: Survival and neurite outgrowth of dorsal root ganglion neurons / DRG assay with E. coli protein extracts; assay type: cell-based; details: protein extracts of E. coli carrying human CNTF sequence in pCP93
Description: In addition, protein extracts were prepared from the same cells lysed by treatment with lysozyme followed by three cycles of freezing and thawing. […] No such activity could be detected in control extracts from the same host cells carrying the plasmid vector without the rCNTF gene.
Human CNTF sequence, engineered to lack intron sequences, has been inserted into the pCP93 vector and used to transform competent E. coli.

[2] = system: E8 chick ciliary ganglion neurons; assay: Survival of dissociated E8 chick ciliary ganglion neurons; assay type: cell-based; details: increasing amounts of pure protein
Description: Ciliary neurotrophic factor activity may be evaluated using any CNTF-sensitive in vivo or in vitro system known in the art. For example, and not by way of limitation, in vitro systems have been developed which measure CNTF activity by quantitating 24-hour survival of embryonic (E8) chick ciliary ganglion (CG) neurons in monolayer cultures.
For example, ciliary ganglia may be collected from E8 chick embryos, dissociated (yielding approximately 20,000 cells per ganglion) and then diluted in HEBM medium containing 20 percent horse serum as described in Varon et al. (1979, Brain Res. 173:29-45). About fifty microliters of cell suspension containing neurons (2,000 cells) may then be seeded into microliter dishes and putative CNTF activity may be added. Culture plates may then be maintained at 37° C. in 5% CO2 for 24 hours, after which the cultures may be fixed by the addition of 200 μl 2 per cent glutaraldehyde in HEBM medium, and the number of surviving neurons may be determined visually by direct count under phase contrast microscopy.
Chick embryo ciliary ganglion cultures were created and maintained according to the method set forth in (Hughes et al., 1988, Nature 335 : 70-73).
(§1) Biological activity of recombinant CNTF was assayed on explants of chick embryo dorsal root ganglia (DRG) and dissociated cultures of ciliary ganglion (CG) neurons as described in Lindsay and Rohrer (1985, Devel. Biol 112:30-48). Briefly, DRG were dissected from chick embryos of 10 days incubation (E10) and 5-6 ganglia were explanted in 1 ml of a collagen gel matrix in 35 mm tissue culture dishes. After the gel had set, 1 ml of tissue culture growth medium F14 (Imperial Labs., U.K.) supplemented with 5% heat-inactivated horse serum (GIBCO) was added before adding human CNTF (1-20 l) to a final concentration of 100 pg to 100 ng/ml. CG were dissected from E8 chick embryos and incubated for 30 min in 0.25% trypsin (Worthington) in calcium- and magnesium-free phosphate buffered saline. The ganglia were then washed three times in F14 medium containing 5% horse serum before being dissociated to a single cell suspension by trituration through the bore of a Pasteur pipette. Enrichment for CG neurons was achieved by plating the cell suspension for 3.5 hr in a 60 mm dish, during which non-neuronal cells (fibroblasts and Schwann cells) attached firmly to the plastic while phase-bright neurons remained in suspension. The purified neurons were plated on polyornithine-laminin-coated 35 mm culture dishes at 8,000-10,000 neurons/dish. In explant cultures CNTF activity was determined by assessing the extent of fiber outgrowth in treated cultures compared to controls. Fiber outgrowth was scored on a scale of 0 to 5+, by comparing cultures to photographs of a dose-response of explanted DRG and NGF. In dissociated CG neuron cultures, CNTF activity was determined by counting at 48 hr the percentage of process-bearing neurons in control and CNTF-treated cultures. In all cases results were derived from triplicate cultures.

E10 chick DRG = assay: Fiber outgrowth from explants of E10 chick embryo dorsal root ganglia; assay type: cell-based
Description: as §1, with “The ganglia were then washed three times in F14 medium containing 5% horse serum before being dissociated to a single cell suspension by trituration through the bore of a Pasteur pipette. Enrichment for CG neurons was achieved by plating the cell suspension for 3.5 hr in a 60 mm dish, during which non-neuronal cells (fibroblasts and Schwann cells) attached firmly to the plastic while phase-bright neurons remained in suspension. The purified neurons were plated on polyornithine-laminin-coated 35 mm culture dishes at 8,000-10,000 neurons/dish.” left out, “In all cases results were derived from triplicate cultures.” left out

[3] = system: Mediodorsal (MD) spinal cord neurons; assay: E14 rat mediodorsal spinal cord neuron cultures in defined medium; assay type: cell-based; details: CNTF 2 μl/ml (recombinant rat, E. coli extract), NGF 50 ng/ml at plating; day 7; Bradford
Description: (§2) Sprague-Dawley rats (HSD) were used for all experiments. Pregnant rats were sacrificed by carbon dioxide asphyxiation, and the embryos were rapidly removed and placed in ice-cold Puck's saline G for further dissection.
(§3) Spinal cords were removed aseptically from rat embryos on the 14th day of gestation. The spinal cord was severed caudal to the bulb, freed of sensory ganglia and meninges. The cord was then subdivided into ventral and mediodorsal segments for separate cultures. The cord tissues were minced into small pieces and mechanically dissociated by trituration through a Pasteur pipet in defined culture medium consisting of 50% basal medium Eagle (BME; Gibco) and 50% Ham's nutrient mixture F12 (Gibco) supplemented with glucose (33 mM), glutamine (2 mM, NaHCO3 (15 mM), HEPES (10 mM), insulin (25 μg/ml), transferrin (100 μg/ml) putrescine (60 μM), progesterone (20 nM), Na selenite (30 nM), penicillin G (0.5 μg/ml), streptomycin (0.5 μg/ml), and bovine serum albumin (2.5 μg/ml). Trituration was repeated twice and the supernatants were pooled and filtered through a nylon (Nitex, Tetko) filter (40 μm). Total cell number yielded was determined by hemocytometer counting in the presence of trypan blue. Dissociated ventral cells were then plated at a density of 0.5 million cells/35 mm dish coated with poly-D-lysine (10 μg/ml). Dissociated mediodorsal cells were plated at a density of 1.5 million/35 mm dish coated with poly-D-lysine (10 μg/ml), poly-L-ornithine (10 μg/ml), or poly-L-ornithine with laminin (5 μg/ml). Treatments to these cultures were added at the time of plating. Cultures were maintained at 37° C. in a 95% air/5% CO2 atmosphere at nearly 100% relative humidity. Culture medium was changed every three to four days.

[4] = system: Ventral spinal cord neurons; assay: Neurofilament (NF) assay in ventral spinal cord neuron cultures; assay type: cell-based, rat; details: CNTF 10 ng/ml, NGF 50 ng/ml at plating; day 7
Description: (§4) Sprague-Dawley rats (HSD or Zivic-Miller) were used for all experiments. Pregnant rats (E14) were sacrificed as described in 10.1.1.
Spinal cords were removed aseptically from rat embryos as described in 10.1.2. The cord tissues were minced into small pieces and incubated in 0.1% trypsin (GIBCO) and 0.01% deoxyribonuclease type 1 (Sigma) at 37° C. for 20 minutes. Trypsin solution was then removed, rinsed and replaced with medium consisting of 45% Eagle's minimum essential medium (MEM), 45% Ham's nutrient mixture F12 (F12), 5% fetal calf serum (GIBCO), 5% horse serum (GIBCO) glutamine (2 mM), penicillin G (0.5 U/ml), and streptomycin (0.5 ug/ml). […] Total cell number yielded was determined by hemocytometer counting in the presence of trypan blue. […]
After fixation of the cells in 4% paraformaldehyde at 4° C. for 2 hours, the cultures were then permeabilized and blocked according to the procedures described in Doherty et al. (1984, J. Neurochem. 42:1116-1122). Neurofilament protein was detected using a monoclonal antibody RT97 (Wood and Anderton, 1981, Biosci. Rep. 1:263-268) at a 1:1000 dilution. The reaction product was visualized using O-phenylenediamine (OPD) as a substrate and optical density was measured at 490 nm.

[5] = system: Ventral spinal cord neurons; assay: E14 rat ventral spinal cord neuron cultures in defined medium; assay type: cell-based; details: CNTF 2 μl/ml, NGF 50 ng/ml at plating; day 7
Description: as §2, §3

[6] = system: Ventral spinal cord neurons; assay: Choline acetyltransferase (CAT) activity in ventral spinal cord cultures; assay type: cell-based, rat; details: CNTF 10 ng/ml, NGF 50 ng/ml, FGF 50 ng/ml at plating; after 7 days in culture
Description: as §4
Spinal cords were removed aseptically from rat embryos as described in 10.1.2. The cord tissues were minced into small pieces and incubated in 0.1% trypsin (GIBCO) and 0.01% deoxyribonuclease type 1 (Sigma) at 37° C. for 20 minutes. Trypsin solution was then removed, rinsed and replaced with medium consisting of 45% Eagle's minimum essential medium (MEM), 45% Ham's nutrient mixture F12 (F12), 5% fetal calf serum (GIBCO), 5% horse serum (GIBCO) glutamine (2 mM), penicillin G (0.5 U/ml), and streptomycin (0.5 ug/ml). This was then mechanically dissociated twice by gentle trituration through a Pasteur pipet in the same medium, and the supernatants were pooled and filtered through a nylon filter (Nitex, Tetko; 40 um). Total cell number yielded was determined by hemocytometer counting in the presence of trypan blue. Dissociated ventral cells were then plated at a density of approximately 50,000 cells/cm^2 on dishes coated with poly-L-ornithine (10 ug/ml) and laminin (5 ug/ml). Treatments were given on the day of plating, except for delayed addition experiments in which treatments were given on days 2 or 6. Cultures were maintained at 37° C. in 95% air/5% CO2 atmosphere at nearly 100% relative humidity. Culture medium was changed every 3 to 4 days. A mitotic inhibitor, cytosine arabinoside (Ara C; 0.5 uM), was added on day 2 to reduce the number of nonneuronal cells. On day 7, cells were harvested for measurements of choline acetyltransferase (CAT; Fonnum, 1975 J. Neurochem. 24:407-409) and protein (Bradford, 1976, Annal. Biochem. 72:248-254) levels or fixed in 4% paraformaldehyde for NF assay (Doherty et al., 1984, J. Neurochem. 42:1116-1122) and immunocytochemistry. Some cultures were grown in defined medium consisting of 50% F12 and 50% MEM, glutamine (2 mM), insulin (5 ug/ml), transferrin (100 ug/ml), progesterone (20 nM), putrescine (10 uM), and sodium selenite (30 nM) (Bottenstein and Sato, 1979, PNAS 76:514-517). In these cultures sera-containing medium was replaced with defined medium on day 1.
Cultures were harvested by lysing the cells in a 20 mM Tris-HCl (pH 8.6) solution containing 0.1% Triton X-100. Two microliters of the cell lysate was removed and assayed for CAT activity according to the micro-Fonnum procedure (Fonnum, 1975, J. Neurochem. 24:407-409). The final substrate composition consisted of 0.2 mM [1-^14C] Acetyl-CoA (NEN, 54.4 mCi/mmol), 300 mM NaCl, 8 mM choline bromide, 20 mM EDTA, and 0.1 mM neostigmine in 50 mM NaH2PO4 (pH 7.4) buffer. At these enzyme and substrate concentrations, the enzymatic reaction was linear for 90-120 minutes. The specificity of the induction for CAT was tested by the addition of a specific inhibitor of CAT activity, N-hydroxyethyl-4-(1-napthylvinyl) pyridium (HNP), during the assay (White and Cavallito, 1970, J. Neurochem. 17:1579-1589).

[7] = system: GABAergic neurons (hippocampal cultures); assay: Effect of other neurotrophic factors on GABAergic hippocampal neurons in culture; assay type: cell-based, rat
Description: Hippocampi were dissected from E18-19 rat embryos of Sprague-Dawley rats, and collected in F10 medium. The tissues were minced, rinsed twice with F10 medium (Gibco) and trypsinized with 0.25% trypsin (Gibco) for 20 minutes at 37° C. Trypsin was inactivated by the addition of a serum-containing medium composed of minimal essential medium (MEM) supplemented with fetal calf serum (FCS, 10%), glutamine (2 mM), penicillin (25 U/ml) and streptomycin (25 ug/ml). Dissociated cells obtained by gentle trituration were collected and centrifuged at low speed (500 rpm) for 30 seconds. The centrifugation was repeated twice, and the cell pellets were then resuspended in serum-containing medium. The cells were then plated onto 6 mm wells or 35 mm dishes that were coated with polyornithine (10 ug/ml) and laminin (10 ug/ml). In most of the experiments, the cells were plated at a low density of approximately 71,000 cells/cm^2. Five to six hours following the plating of cells, medium was changed to a serum-free medium containing 1% N3 and penicillin-streptomycin (25 units/ml and 25 ug/ml, respectively), at which time CNTF was added. Medium was changed every three to four days, with re-addition of the factor. […]

[8] = system: AchE-containing ventral spinal cord neurons; assay: Count of AchE-containing neurons in ventral spinal cord cultures; assay type: cell-based, rat; details: CNTF 10 ng/ml at plating; 7 days
Description: as §4
Spinal cords were removed aseptically from rat embryos as described in 10.1.2. The cord tissues were minced into small pieces and incubated in 0.1% trypsin (GIBCO) and 0.01% deoxyribonuclease type 1 (Sigma) at 37° C. for 20 minutes. Trypsin solution was then removed, rinsed and replaced with medium consisting of 45% Eagle's minimum essential medium (MEM), 45% Ham's nutrient mixture F12 (F12), 5% fetal calf serum (GIBCO), 5% horse serum (GIBCO) glutamine (2 mM), penicillin G (0.5 U/ml), and streptomycin (0.5 ug/ml). This was then mechanically dissociated twice by gentle trituration through a Pasteur pipet in the same medium, and the supernatants were pooled and filtered through a nylon filter (Nitex, Tetko; 40 um). Total cell number yielded was determined by hemocytometer counting in the presence of trypan blue. Dissociated ventral cells were then plated at a density of approximately 50,000 cells/cm^2 on dishes coated with poly-L-ornithine (10 ug/ml) and laminin (5 ug/ml). Treatments were given on the day of plating, except for delayed addition experiments in which treatments were given on days 2 or 6. Cultures were maintained at 37° C. in 95% air/5% CO2 atmosphere at nearly 100% relative humidity. Culture medium was changed every 3 to 4 days. […]

| Molecule | CNTF activity in DRG assay [1] | activity towards chick ciliary neurons compared with rat CNTF [2] | maximum fiber outgrowth at saturating levels, relative to saturating levels of NGF (E10 chick DRG) | μg protein dish [3] | increase in NF content versus untreated controls [4] | CAT Activity [5] | Protein [5] | increase in CAT activity [6] | effect on / survival of GABAergic neurons [7] | increase in AchE-positive neurons versus untreated controls [8] |
| --- | --- | --- | --- | --- | --- | --- | --- | --- | --- | --- |
| recombinant human CNTF: human ciliary neurotrophic factor expressed in E. coli (protein, UniProt P26441 1-200, looked up) Ciliary neurotrophic factor: MAFTEHSPLTPHRRDLCSRSIWLARKIRSDLTALTESYVKHQGLNKNINLDSADGMPVASTDQWSELTEAERLQENLQAYRTFHVLLARLLEDQQVHFTPTEGDFHQAIHTLLLQVAAFAYQIEELMILLEYKIPRNEADGMPINVGDGGLFEKKLWGLKVLQELSQWTVRSIHDLRFISSHQTGIPARGSHYIANNKKM | CNTF activity | as active as rat CNTF | 50-75% |  |  |  |  |  |  |  |
| NGF: mouse nerve growth factor (protein, UniProt P01139 122-241, looked up) Beta-nerve growth factor: SSTHPVFHMGEFSVCDSVSVWVGDKTTATDIKGKEVTVLAEVNINNSVFRQYFFETKCRASNPVESGCRGIDSKHWNSYCTTTHTFVKALTTDEKQAAWRFIRIDTACVCVLSRKATRRG |  |  |  | 20 μg protein dish | did not produced any significant effect | 621.25 ± 33.59 CPM/dish | 38 μg/dish | no effect | not able to detect any effect | small effect |
